From patent US7101851 (dated 2006)
Bridges are numbered along the chain shown (N, C = ends). Where no end group is shown, it is not given here. [ ]: non-standard residue; d: D form. Ava = NCCCCC(=O)O

T1: alpha subunit of the human FcεRI receptor (IgE high affinity receptor), expressed on Chinese hamster ovary … (human, UniProt P12319 26-257)
T1 construct: whole, on cells; also called CHO FcεRI+ cells; FcεRIα
T1 sequence (looked up): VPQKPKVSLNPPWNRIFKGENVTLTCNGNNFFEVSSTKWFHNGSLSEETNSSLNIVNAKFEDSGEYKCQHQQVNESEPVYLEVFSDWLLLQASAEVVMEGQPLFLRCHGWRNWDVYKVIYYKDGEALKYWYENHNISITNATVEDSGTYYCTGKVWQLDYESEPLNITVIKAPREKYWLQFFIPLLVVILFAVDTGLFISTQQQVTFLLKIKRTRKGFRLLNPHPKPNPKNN

T2: alpha subunit of the human FcεRI receptor expressed on Chinese hamster ovary cells (human, UniProt P12319 26-257)
T2 construct: whole, on cells; also called CHO FcεRI+ cells
T2 sequence (looked up): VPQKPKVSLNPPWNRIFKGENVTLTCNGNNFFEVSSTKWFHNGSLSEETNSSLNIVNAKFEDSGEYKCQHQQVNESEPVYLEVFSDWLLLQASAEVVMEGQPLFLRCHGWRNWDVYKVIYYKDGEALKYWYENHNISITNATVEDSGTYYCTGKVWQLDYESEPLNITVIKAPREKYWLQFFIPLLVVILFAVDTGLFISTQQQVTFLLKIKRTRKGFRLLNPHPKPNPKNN

B1: IGE183 (peptide)
peptide: VQCPHFCYDASRLCPDVCYV-NH2
modifications: disulfide (positions not given here); not fully specified (bridges); printed as VQCPHFCYDASRLCPDVCYV-nh2
B2: IGE197 (peptide)
peptide: VQCPDFCYDASRLCPDVCYV-NH2
modifications: disulfide 7-14, 3-18; N-terminus assumed
SMILES: CC(C)C[C@@H]1NC(=O)[C@H](CCCNC(=N)N)NC(=O)[C@H](CO)NC(=O)[C@H](C)NC(=O)[C@H](CC(=O)O)NC(=O)[C@H](Cc2ccc(O)cc2)NC(=O)[C@@H]2CSSC[C@H](NC1=O)C(=O)N1CCC[C@H]1C(=O)N[C@@H](CC(=O)O)C(=O)N[C@@H](C(C)C)C(=O)N[C@H](C(=O)N[C@@H](Cc1ccc(O)cc1)C(=O)N[C@H](C(N)=O)C(C)C)CSSC[C@H](NC(=O)[C@H](CCC(N)=O)NC(=O)[C@@H](N)C(C)C)C(=O)N1CCC[C@H]1C(=O)N[C@@H](CC(=O)O)C(=O)N[C@@H](Cc1ccccc1)C(=O)N2
B3: IGE196 (peptide)
peptide: VQCPHFCYDASELCPDVCYV-NH2
modifications: disulfide (positions not given here); not fully specified (bridges); printed as VQCPHFCYDASELCPDVCYV-nh2
B4: IGE203 (peptide)
peptide: VQCPKFCYE[Ava]CPDVCYV-NH2
modifications: disulfide (positions not given here); not fully specified (bridges); printed as VQCPKFCYEavaCPDVCYV-nh2; also: dimer
B5: IGE184 (peptide)
peptide: VQCPHFCYDYELCPDVCYV-NH2
modifications: disulfide 7-13, 3-17; N-terminus assumed
SMILES: CC(C)C[C@@H]1NC(=O)[C@H](CCC(=O)O)NC(=O)[C@H](Cc2ccc(O)cc2)NC(=O)[C@H](CC(=O)O)NC(=O)[C@H](Cc2ccc(O)cc2)NC(=O)[C@@H]2CSSC[C@H](NC1=O)C(=O)N1CCC[C@H]1C(=O)N[C@@H](CC(=O)O)C(=O)N[C@@H](C(C)C)C(=O)N[C@H](C(=O)N[C@@H](Cc1ccc(O)cc1)C(=O)N[C@H](C(N)=O)C(C)C)CSSC[C@H](NC(=O)[C@H](CCC(N)=O)NC(=O)[C@@H](N)C(C)C)C(=O)N1CCC[C@H]1C(=O)N[C@@H](Cc1c[nH]cn1)C(=O)N[C@@H](Cc1ccccc1)C(=O)N2
B6: IGE199 (peptide)
peptide: VQCPDFCY[Ava]LCPDVCYV-NH2
modifications: disulfide (positions not given here); not fully specified (bridges); printed as VQCPDFCYavaLCPDVCYV-nh2
B7: IGE198 (peptide)
peptide: VQCPHFCY[Ava]LCPDVCYV-NH2
modifications: disulfide (positions not given here); not fully specified (bridges); printed as VQCPHFCYavaLCPDVCYV-nh2
B8: IGE200 (peptide)
peptide: VQCPKFCY[Ava]LCPDVCYV-NH2
modifications: disulfide (positions not given here); not fully specified (bridges); printed as VQCPKFCYavaLCPDVCYV-nh2
B9: IGE201 (peptide)
peptide: VQCPDFCY[Ava]LCPDQCYV-NH2
modifications: disulfide (positions not given here); not fully specified (bridges); printed as VQCPDFCYavaLCPDQCYV-nh2
B10: IGE185 (peptide)
peptide: VQCPHFCYAEPLCPDVCYV-NH2
modifications: disulfide 7-13, 3-17; N-terminus assumed
SMILES: CC(C)C[C@@H]1NC(=O)[C@@H]2CCCN2C(=O)[C@H](CCC(=O)O)NC(=O)[C@H](C)NC(=O)[C@H](Cc2ccc(O)cc2)NC(=O)[C@@H]2CSSC[C@H](NC1=O)C(=O)N1CCC[C@H]1C(=O)N[C@@H](CC(=O)O)C(=O)N[C@@H](C(C)C)C(=O)N[C@H](C(=O)N[C@@H](Cc1ccc(O)cc1)C(=O)N[C@H](C(N)=O)C(C)C)CSSC[C@H](NC(=O)[C@H](CCC(N)=O)NC(=O)[C@@H](N)C(C)C)C(=O)N1CCC[C@H]1C(=O)N[C@@H](Cc1c[nH]cn1)C(=O)N[C@@H](Cc1ccccc1)C(=O)N2
B11: IGE187 (peptide)
peptide: VQCPHFCYE[Ava]ELCPDVCYV-NH2
modifications: disulfide (positions not given here); not fully specified (bridges); printed as VQCPHFCYEavaELCPDVCYV-nh2
B12: IGE202 (peptide)
peptide: VQCPDFCY[Ava]CPDVCYV-NH2
modifications: disulfide (positions not given here); not fully specified (bridges); printed as VQCPDFCYavaCPDVCYV-nh2

Target: T1, alpha subunit of the human FcεRI …
Test: inhibition of 125I-IgE binding to CHO cells expressing human FcεRI alpha; competitor IgE
Procedure, shortened: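 CHO cells expressing human FcεRI alpha were plated at 5 × 10^4 cells per well overnight, then given peptides serially diluted 1:3 from 50–500 uM starting concentrations in F12/DMEM with 1% BSA, 0.05% NaN3 and Hepes pH 7.2. Inhibition of 125I-IgE binding was measured.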

**Q.** Which IC50 does the source give for VQCPHFCYELDYEADRLCPDVCYV-NH2 (disulfide (positions not given here); also: two disulfides, pairing not settled) [IGE188] here?
**A.** 0.98 µM

**Q.** How did the IC50 turn out when B1 was run?
**A.** 0.03 µM

**Q.** How did the IC50 turn out when B2 was run?
**A.** 0.12 µM

**Q.** How did the IC50 turn out when B3 was run?
**A.** 0.09 µM

**Q.** How did the IC50 turn out when B4 was run?
**A.** 12.9 µM

**Q.** For B5, which IC50 is on record?
**A.** 0.11 µM

**Q.** For B6, which IC50 is on record?
**A.** 6.67 µM

**Q.** For B7, which IC50 is on record?
**A.** 7.8 µM

**Q.** B8 was tested. Which IC50 did it give?
**A.** 11.7 µM

**Q.** Which IC50 does the source give for B9 here?
**A.** 14.6 µM

**Q.** VQCPHFCYEL[Ava]ELCPDVCYV-NH2 (disulfide 7-14, 3-18) [IGE186] was tested. Which IC50 did it give?
**A.** 0.18 µM

**Q.** B10 was tested. Which IC50 did it give?
**A.** 0.076 µM

**Q.** For B11, which IC50 is on record?
**A.** 0.09 µM

**Q.** Which IC50 does the source give for B12 here?
**A.** 132 µM

**Q.** How did the IC50 turn out when VQCPHFCYELDYEAGDERLCPDVCYV-NH2 (disulfide (positions not given here); also: two disulfides, pairing not settled) [IGE189] was run?
**A.** 0.15 µM

Target: T2, alpha subunit of the human FcεRI …
Test: inhibition of 125I-IgE binding to CHO cells expressing human FcεRI alpha subunit
Method: To determine the ability of peptides to inhibit IgE binding to FcεRI, a cell-based binding assay was used with radiolabeled IgE. Chinese hamster ovary cells expressing the alpha subunit of the human FcεRI receptor were cultured overnight in Falcon 96 well microtiter plates at a concentration of 5 ×10^4 cells per well. The following day the cells were rinsed three times with PBS and then once with F12/DMEM. Peptide stocks were reconstituted in 100 mM Hepes buffered water, pH 7.2, at a concentration of 5 mg/mL. Working concentrations of the peptide were diluted in assay buffer (see below). 75 uL of a desired concentration of peptide was added to the top row of a separate 96 well microtiter plate and serially diluted 1:3 in 50 uL of the assay buffer (F12/DMEM, 1% BSA, 0.05% NaN_3 and 0.025 mM Hepes pH 7.2). Starting concentrations ranged from 50–500 uM. Next, 50 uL of the diluted peptide was transferred to the 96 microtiter well plate containing a monolayer of CHO FcεRI+ cells. […] Cells were […]

**Q.** CTEGPWGWFCI-NH2 (disulfide 1-10 (inferred), synthetic) [IGE047] was tested. Which IC50 did it give?
**A.** 741 µM

**Q.** For NLPRCTEGPWGWVCM-NH2 (disulfide 5-14 (inferred), synthetic) [IGE057], which IC50 is on record?
**A.** 0.8 µM

**Q.** With NLPRCTEGPWAWVCM (disulfide 5-14 (inferred), synthetic) [IGE074] as the binder, how does the IC50 read?
**A.** 43 µM

**Q.** For NLPRCTEGPWGAVCM (disulfide 5-14 (inferred), synthetic) [IGE073], which IC50 is on record?
**A.** 118 µM

**Q.** NLPRCTEGPAGWVCM (disulfide 5-14 (inferred), synthetic) [IGE072] was tested. Which IC50 did it give?
**A.** 81.5 µM

**Q.** Ac-CTEGPWGWFCI-NH2 (disulfide 1-10 (inferred), synthetic) [IGE046] was tested. Which IC50 did it give?
**A.** 549 µM

**Q.** Which IC50 does the source give for Ac-CLEGPWGWFCI-NH2 (disulfide 1-10 (inferred), synthetic) [IGE044] here?
**A.** 194 µM

**Q.** With CLEGPWGWFCI-NH2 (disulfide 1-10 (inferred), synthetic) [IGE045] as the binder, how does the IC50 read?
**A.** 300 µM

**Q.** Ac-CLEGPWGWVCI-NH2 (disulfide 1-10 (inferred), synthetic) [IGE080] was tested. Which IC50 did it give?
**A.** 410 µM

**Q.** With Ac-NLPRCTEGPWGWVCMAAD-NH2 (disulfide 5-14 (inferred), synthetic) [IGE042] as the binder, how does the IC50 read?
**A.** 1.5 µM

**Q.** Ac-NLPRCTEGPKGWVCMADD-NH2 (disulfide 5-14 (inferred), synthetic) [IGE032] was tested. Which IC50 did it give?
**A.** 10.8 µM

**Q.** For Ac-NLPRCTEGPNGWVCMAAD-NH2 (disulfide 5-14 (inferred), synthetic) [IGE050], which IC50 is on record?
**A.** 19.4 µM

**Q.** How did the IC50 turn out when NLPRCTEGPNGWVCMAAD-NH2 (disulfide 5-14 (inferred), synthetic) [IGE051] was run?
**A.** 23.7 µM

**Q.** How did the IC50 turn out when Ac-NLPRCTAGPWGWVCMAAD-NH2 (disulfide 5-14 (inferred), synthetic) [IGE059] was run?
**A.** 10.5 µM

**Q.** Which IC50 does the source give for Ac-NLPRCTEGPWGWVCMADD-NH2 (disulfide 5-14 (inferred), synthetic) [IGE031] here?
**A.** 1.1 µM
